One may read the IC50 as the point on the concentration scale where inhibition reaches its midpoint.

For this assay, the target named is T1, human C5a receptor (C5aR) on purified human neutrophils (human, UniProt P21730 1-350).
T1 construct: whole, on cells
T1 sequence (looked up): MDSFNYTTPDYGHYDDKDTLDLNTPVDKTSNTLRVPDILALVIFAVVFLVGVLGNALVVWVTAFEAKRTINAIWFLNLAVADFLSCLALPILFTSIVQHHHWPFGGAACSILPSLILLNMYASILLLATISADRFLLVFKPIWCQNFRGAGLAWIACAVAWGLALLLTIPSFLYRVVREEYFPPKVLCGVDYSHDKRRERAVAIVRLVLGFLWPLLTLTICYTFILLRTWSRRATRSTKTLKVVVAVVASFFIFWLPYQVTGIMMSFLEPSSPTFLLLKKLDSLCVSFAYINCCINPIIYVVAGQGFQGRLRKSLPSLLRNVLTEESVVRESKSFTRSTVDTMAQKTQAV
The assay is described as follows: displacement of 125I-C5a from purified human neutrophils by unlabeled recombinant human C5a. How it is done:
MAb137-26 was serially diluted in 1.5 ml Eppendorf centrifuged tubes with a binding buffer (1% BSA in RPMI1640 medium) to give final concentrations ranging from 640 nM to 0.04 nM. […] Purified recombinant human C5a (Sigma, St. Louis, Mo. was used as positive control, whereas an isotype-matched irrelevant monoclonal antibody was used as negative control. For the maximum binding of ¹²⁵I-C5a, 36 μl of the binding buffer without the antibodies or C5a was used instead. Fifty microliters of the neutrophil suspension was added to each tube for incubation on ice. At the end of the 40-minute incubation period, the mixture from each tube was transferred to the top of 800 μl of a separation buffer (6% BSA in PBS) in another Eppendorf tube. The tubes were than centrifuged at 2000×g for 3 minutes at room temperature. After the supernatant was aspirated, the cell pellet was re-suspended in 0.5 ml of de-ionized water to lyse the cells. The cell lysate was then mixed with 3 ml of Ultima Gold scintillation fluid (Packard Instrument, Meriden, Conn.) for radioactive counting. The percent inhibition of ¹²⁵I-C5a binding is defined as: [Cpmₘₐₓ−Cpmbkg]−[Cpmca−Cpmbkg]/[Cpmₘₐₓ−Cpmbkg]×100 where: Cpmₘₐₓ=maximum count per minute without competing agents; Cpmbkg=background cpm without addition of ¹²⁵I-C5a; and Cpmca=cpm with competing agents.
(In general: In a radioligand displacement assay an active substance lowers the binding of a labelled ligand.)

B1: human C5a (ligand, UniProt P01031 678-751, looked up)
chain: TLQKKIEEIAAKYKHSVVKKCCYDGACVNNDETCEQRAARISLGPRCIKAFTECCVVASQLRANISHKDMQLGR
notes: domain: C5a; Bought recombinant protein; also called recombinant C5a (Sigma); purified recombinant human C5a
Consider B1, for which the half-maximal inhibitory concentration (IC50) worked out at 30 nM.

For the origin of these results see patent US20080118508A1 (published 2008).
